This note sets out measurements from patent CN108059680A (BEIJING DONGFANG BIOTECH CO LTD, dated 2018).

The target in the assay is T1, CD20 (UniProt P11836 1-297, limits assumed).
T1 construct: whole, on cells; also called 细胞表面CD20; Raji细胞(过表达CD20细胞系)
T1 sequence (looked up): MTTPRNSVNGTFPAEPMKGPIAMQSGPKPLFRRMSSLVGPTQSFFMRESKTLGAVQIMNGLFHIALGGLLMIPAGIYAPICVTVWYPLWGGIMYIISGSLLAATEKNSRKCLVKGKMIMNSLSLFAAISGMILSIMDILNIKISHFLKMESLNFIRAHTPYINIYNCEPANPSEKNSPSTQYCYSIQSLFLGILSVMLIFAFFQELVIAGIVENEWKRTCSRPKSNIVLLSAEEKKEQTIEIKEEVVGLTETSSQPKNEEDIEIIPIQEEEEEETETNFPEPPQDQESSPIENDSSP
As to the kind of experiment: flow cytometry on Raji cells (CD20-overexpressing), Alexa488 anti-human IgG-Fc detection.

B1: JY052 (bispecific antibody, human IgG4 S228P, kappa)
light: DIVMTQTPLSLPVTPGEPASISCRSSKSLLHSNGITYLYWYLQKPGQSPQLLIYQMSNLVSGVPDRFSGSGSGTDFTLKISRVEAEDVGVYYCAQNLELPYTFGGGTKVEIKRTVAAPSVFIFPPSDEQLKSGTASVVCLLNNFYPREAKVQWKVDNALQSGNSQESVTEQDSKDSTYSLSSTLTLSKADYEKHKVYACEVTHQGLSSPVTKSFNRGEC
heavy: QVQLVQSGAEVKKPGSSVKVSCKASGYAFSYSWINWVRQAPGQGLEWMGRIFPGDGDTDYNGKFKGRVTITADKSTSTAYMELSSLRSEDTAVYYCARNVFDGYWLVYWGQGTLVTVSSASTKGPSVFPLAPCSRSTSESTAALGCLVKDYFPEPVTVSWNSGALTSGVHTFPAVLQSSGLYSLSSVVTVPSSSLGTKTYTCNVDHKPSNTKVDKRVESKYGPPCPPCPAPEFLGGPSVFLFPPKPKDTLMISRTPEVTCVVVDVSQEDPEVQFNWYVDGVEVHNAKTKPREEQFNSTYRVVSVLTVLHQDWLNGKEYKCKVSNKGLPSSIEKTISKAKGQPREPQVYVLPPSQEEMTKNQVSLLCLVKGFYPSDIAVEWESNGQPENNYLTWPPVLDSDGSFFLYSRLTVDKSRWQEGNVFSCSVMHEALHNHYTQKSLSLSLG
chain: not shown
notes: Three-chain bispecific: anti-CD20 light-heavy pair plus anti-CD3 single-chain Fab-Fc, joined by hinge disulfides and a knob-into-hole structure in CH3; also called 抗CD20×CD3的双特异抗体; 针对CD20和CD3的双特异性抗体
For the molecule B1, the binding result is listed as “binds”.
